Test results: PMC9348906 (Science (New York, N.Y.), 2022)
Values joined by “and” are separate entries in the source; they are usually repeats but may differ in a detail not shown here. Equal entries are not always repeated. Where two headings read alike, the source gives them in different places.

B1: NUP358^NTD (domain or fragment, human, UniProt P49792 1-752, looked up)
chain: MRRSKADVERYIASVQGSTPSPRQKSMKGFYFAKLYYEAKEYDLAKKYICTYINVQERDPKAHRFLGLLYELEENTDKAVECYRRSVELNPTQKDLVLKIAELLCKNDVTDGRAKYWLERAAKLFPGSPAIYKLKEQLLDCEGEDGWNKLFDLIQSELYVRPDDVHVNIRLVEVYRSTKRLKDAVAHCHEAERNIALRSSLEWNSCVVQTLKEYLESLQCLESDKSDWRATNTDLLLAYANLMLLTLSTRDVQESRELLQSFDSALQSVKSLGGNDELSATFLEMKGHFYMHAGSLLLKMGQHSSNVQWRALSELAALCYLIAFQVPRPKIKLIKGEAGQNLLEMMACDRLSQSGHMLLNLSRGKQDFLKEIVETFANKSGQSALYDALFSSQSPKDTSFLGSDDIGNIDVREPELEDLTRYDVGAIRAHNGSLQHLTWLGLQWNSLPALPGIRKWLKQLFHHLPHETSRLETNAPESICILDLEVFLLGVVYTSHLQLKEKCNSHHSSYQPLCLPLPVCKQLCTERQKSWWDAVCTLIHRKAVPGNVAKLRLLVQHEINTLRAQEKHGLQPALLVHWAECLQKTGSGLNSFYDQREYIGRSVHYWKKVLPLLKIIKKKNSIPEPIDPLFKHFHSVDIQASEIVEYEEDAHITFAILDAVNGNIEDAVTAFESIKSVVSYWNLALIFHRKAEDIENDALSPEEQEECKNYLRKTRDYLIKIIDDSDSNLSVVKKLPVPLESVKEMLNSVMQE
B2: NUP358^1–832 (domain or fragment, human, UniProt P49792 1-832, looked up)
chain: MRRSKADVERYIASVQGSTPSPRQKSMKGFYFAKLYYEAKEYDLAKKYICTYINVQERDPKAHRFLGLLYELEENTDKAVECYRRSVELNPTQKDLVLKIAELLCKNDVTDGRAKYWLERAAKLFPGSPAIYKLKEQLLDCEGEDGWNKLFDLIQSELYVRPDDVHVNIRLVEVYRSTKRLKDAVAHCHEAERNIALRSSLEWNSCVVQTLKEYLESLQCLESDKSDWRATNTDLLLAYANLMLLTLSTRDVQESRELLQSFDSALQSVKSLGGNDELSATFLEMKGHFYMHAGSLLLKMGQHSSNVQWRALSELAALCYLIAFQVPRPKIKLIKGEAGQNLLEMMACDRLSQSGHMLLNLSRGKQDFLKEIVETFANKSGQSALYDALFSSQSPKDTSFLGSDDIGNIDVREPELEDLTRYDVGAIRAHNGSLQHLTWLGLQWNSLPALPGIRKWLKQLFHHLPHETSRLETNAPESICILDLEVFLLGVVYTSHLQLKEKCNSHHSSYQPLCLPLPVCKQLCTERQKSWWDAVCTLIHRKAVPGNVAKLRLLVQHEINTLRAQEKHGLQPALLVHWAECLQKTGSGLNSFYDQREYIGRSVHYWKKVLPLLKIIKKKNSIPEPIDPLFKHFHSVDIQASEIVEYEEDAHITFAILDAVNGNIEDAVTAFESIKSVVSYWNLALIFHRKAEDIENDALSPEEQEECKNYLRKTRDYLIKIIDDSDSNLSVVKKLPVPLESVKEMLNSVMQELEDYSEGGPLYKNGSLRNADSEIKHSTPSPTRYSLSPSKSYKYSPKTPPRWAEDQNSLLKMICQQVEAIKKEMQELKLNS

Experiments:
Assay in all cases: SEC-MALS
[1] = target: C. thermophilum coat nup complex (CNC) (C. thermophilum) (UniProt G0S2X1)
Chain of C. thermophilum coat nup complex (CNC) (C. thermophilum) (G0S2X1 whole entry, looked up, one chain of several): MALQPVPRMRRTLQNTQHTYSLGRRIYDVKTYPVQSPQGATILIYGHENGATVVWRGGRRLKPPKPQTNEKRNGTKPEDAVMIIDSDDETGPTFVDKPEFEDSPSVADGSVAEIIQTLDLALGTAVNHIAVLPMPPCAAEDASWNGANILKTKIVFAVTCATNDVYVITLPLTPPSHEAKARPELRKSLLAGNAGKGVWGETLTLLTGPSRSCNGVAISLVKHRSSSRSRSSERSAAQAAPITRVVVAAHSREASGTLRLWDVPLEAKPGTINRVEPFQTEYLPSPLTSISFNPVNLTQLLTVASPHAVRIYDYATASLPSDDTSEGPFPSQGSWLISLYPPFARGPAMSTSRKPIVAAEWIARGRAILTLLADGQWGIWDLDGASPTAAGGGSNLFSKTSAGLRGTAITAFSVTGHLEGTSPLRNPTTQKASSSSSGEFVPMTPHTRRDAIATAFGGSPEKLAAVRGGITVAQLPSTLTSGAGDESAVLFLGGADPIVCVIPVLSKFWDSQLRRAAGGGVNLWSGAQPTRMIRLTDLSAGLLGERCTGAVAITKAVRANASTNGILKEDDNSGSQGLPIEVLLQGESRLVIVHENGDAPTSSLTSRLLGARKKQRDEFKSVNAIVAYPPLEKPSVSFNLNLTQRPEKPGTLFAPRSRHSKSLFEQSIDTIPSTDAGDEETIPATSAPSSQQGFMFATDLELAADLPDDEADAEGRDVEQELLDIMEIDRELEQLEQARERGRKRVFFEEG

SEC-MALS [2] = target: the molecule itself
SEC-MALS [3] = target: the molecule itself; remark: listed apart in the source

Molecule	stoichiometry N (SEC-MALS [3])	other results
C. thermophilum cytoplasmic filament nup complex (CFNC) (from UniProt G0S4F3 1-882; G0SBS8 1-1481; G0SBQ3 1-678; G0SAK3 1-993)	–	stoichiometry N [1]: 2
B1	–	stoichiometry N (SEC-MALS [2]): 2
B2	4 and 5	–
RWAEDQNSLLKMICQQVEAIKKEMQELKLNS (domain or fragment, human, UniProt P49792 802-832, looked up) [NUP358^OE]	2 and 4	–
